Experimental data: the supplement of paper PMC9233669
This sample holds only a part of the variants without activity.

Experiments:
biotinyl-Phe-oxazolone = assay: self-aminoacylation, catalytic enhancement (BFO) (fold over background); higher = more active; k-Seq, kA / k0A0; sequences stand for … in GGGAAUGGAUCCACAUCUACGAAUUC…UUCACUGCAGACUUGACGAAGCUG
Procedure, shortened: (§1)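 Catalytic enhancement equals the median kA over the uncatalyzed rate, the latter read from the low-activity peak of a bimodal Gaussian fit. Values of kA came from fitting each sequence's fraction reacted to a pseudo-first-order model, with 1000 bootstraps. Reacted RNA was captured with streptavidin and quantified by triplicate qPCR and Illumina sequencing after 90 minutes at room temperature with 2–1250 μM biotinyl-aminoacyl-oxazolone and 0.43 μM mutagenized RNA pools bearing a 21-nt variable region.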

biotinyl-Ile-oxazolone = assay: self-aminoacylation, catalytic enhancement (BIO) (fold over background); higher = more active; k-Seq, kA / k0A0; sequences stand for … in GGGAAUGGAUCCACAUCUACGAAUUC…UUCACUGCAGACUUGACGAAGCUG
Procedure, shortened: as §1

biotinyl-Met-oxazolone = assay: self-aminoacylation, catalytic enhancement (BMO) (fold over background); higher = more active; k-Seq, kA / k0A0; sequences stand for … in GGGAAUGGAUCCACAUCUACGAAUUC…UUCACUGCAGACUUGACGAAGCUG
Procedure, shortened: as §1

biotinyl-Val-oxazolone = assay: self-aminoacylation, catalytic enhancement (BVO) (fold over background); higher = more active; k-Seq, kA / k0A0; sequences stand for … in GGGAAUGGAUCCACAUCUACGAAUUC…UUCACUGCAGACUUGACGAAGCUG
Procedure, shortened: as §1

biotinyl-Leu-oxazolone = assay: self-aminoacylation, catalytic enhancement (BLO) (fold over background); higher = more active; k-Seq, kA / k0A0; sequences stand for … in GGGAAUGGAUCCACAUCUACGAAUUC…UUCACUGCAGACUUGACGAAGCUG
Procedure, shortened: as §1

biotinyl-Trp-oxazolone = assay: self-aminoacylation, catalytic enhancement (BWO) (fold over background); higher = more active; k-Seq, kA / k0A0; sequences stand for … in GGGAAUGGAUCCACAUCUACGAAUUC…UUCACUGCAGACUUGACGAAGCUG
Procedure, shortened: as §1

Row | Sequence | self-aminoacylation (biotinyl-Phe-oxazolone) | self-aminoacylation (biotinyl-Ile-oxazolone) | self-aminoacylation (biotinyl-Met-oxazolone) | self-aminoacylation (biotinyl-Val-oxazolone) | self-aminoacylation (biotinyl-Leu-oxazolone) | self-aminoacylation (biotinyl-Trp-oxazolone)
1 | GAGUUUGCUAAUAGUCGCGAG [Fam3.1 aminoacylation ribozyme variant] | 1.76 | 1.55 | 1.63 | 1.38 | 1.47 | 2.17
2 | GAGUUUGCUUAUAGUCGCAAG [Fam3.1 aminoacylation ribozyme variant] | 2.28 | 1.65 | 1.44 | 1.39 | 1.24 | 1.75
3 | GCACACUACAAGCAAUCGGUC [Fam1B.1 aminoacylation ribozyme variant] | 1.55 | 1.36 | 0.979 | 1.26 | 1.14 | 1.68
4 | GCACACUGCAAGCAAUCGGUC [Fam1B.1 aminoacylation ribozyme variant] | 1.77 | 2.14 | 1.87 | 2.12 | 1.87 | 2.4
5 | GCACACUUCAAGCAAUCGGGC [Fam1B.1 aminoacylation ribozyme variant] | 13.7 | 3.11 | 2.58 | 3.09 | 3.02 | 4.23
6 | GCACACUUCAAGCAAUCGGUU [Fam1B.1 aminoacylation ribozyme variant] | 4.75 | 3.38 | 2.66 | 2.86 | 3.33 | 6.83
7 | GCACACUUCAAGCAUUCGGUC [Fam1B.1 aminoacylation ribozyme variant] | 4.96 | 2.57 | 2.09 | 2.59 | 2.17 | 3.5
8 | GCACACUUCCAGCAAUCGGUC [Fam1B.1 aminoacylation ribozyme variant] | 1.1 | 2.01 | 1.55 | 2.31 | 1.73 | 2.11
9 | GCCCACUUCAAGCAAUCGGUC [Fam1B.1 aminoacylation ribozyme variant] | 24.1 | 1.42 | 1.27 | 1.67 | 1.77 | 18.7
10 | GCUCACUUCAAGCAAUCGGUC [Fam1B.1 aminoacylation ribozyme variant] | 16.7 | 1.69 | 1.58 | 1.67 | 1.77 | 10.9
11 | GGACUUCAAACAAUCGGUCUG [Fam1A.1 aminoacylation ribozyme variant] | 122 | 2.34 | 2 | 1.88 | 2.75 | 47.1
12 | GGUACCCUGGUCAUCGAGUGA [Fam2.1 aminoacylation ribozyme variant] | 38.7 | 6.93 | 11.2 | 6.65 | 12.6 | 16.4
13 | GUAAUUCAAACAAUCGGUCUG [Fam1A.1 aminoacylation ribozyme variant] | 2.5 | 1.05 | 0.925 | 0.938 | 0.967 | 2.11
14 | GUACUCCAAACAAUCGGUCUG [Fam1A.1 aminoacylation ribozyme variant] | 2.05 | 1.06 | 0.967 | 1.04 | 0.944 | 1.84
15 | GUACUUCAAACAAGCGGUCUG [Fam1A.1 aminoacylation ribozyme variant] | 5.04 | 1.78 | 1.42 | 1.49 | 1.63 | 2.06
16 | GUACUUCAAACAAUCGAUCUG [Fam1A.1 aminoacylation ribozyme variant] | 1.72 | 1.18 | 0.863 | 0.987 | 0.862 | 1.64
17 | GUACUUCAAACAAUCGGUCUG [Fam1A.1 aminoacylation ribozyme variant] | 51.3 | 1.54 | 1.53 | 1.42 | 2.15 | 30.5
18 | GUACUUCAAACGAUCGGUCUG [Fam1A.1 aminoacylation ribozyme variant] | 1.38 | 1.14 | 1.13 | 1.08 | 1.32 | 1.8
19 | GUACUUCAAAGAAUCGGUCUG [Fam1A.1 aminoacylation ribozyme variant] | 3.28 | 1.26 | 1.07 | 1.24 | 1.46 | 4.9
20 | GUUACCCGGGUCAUCGAGUGA [Fam2.1 aminoacylation ribozyme variant] | 62.8 | 4.5 | 8.11 | 4.77 | 9.84 | 8.97
21 | GUUACCCUGAUCAUCGAGUGA [Fam2.1 aminoacylation ribozyme variant] | 32.3 | 3.61 | 8.85 | 4.23 | 9.43 | 11.1
22 | GUUACCCUGGACAUCGAGUGA [Fam2.1 aminoacylation ribozyme variant] | 48 | 4.6 | 8.05 | 4.58 | 9.14 | 9.84
23 | GUUACCCUGGUCACCGAGUGA [Fam2.1 aminoacylation ribozyme variant] | 79.2 | 5.31 | 11.2 | 6.95 | 13.1 | 14.8
24 | GUUACCCUGGUCAUCGAGAGA [Fam2.1 aminoacylation ribozyme variant] | 2.82 | 1.32 | 2.96 | 1.74 | 1.9 | 3.07
25 | GUUACCCUUGUCAUCGAGUGA [Fam2.1 aminoacylation ribozyme variant] | 48.1 | 4.41 | 8.39 | 4.44 | 8.14 | 10.7
26 | GUUAUCCUGGUCAUCGAGUGA [Fam2.1 aminoacylation ribozyme variant] | 16.1 | 6.24 | 10.9 | 5.41 | 9.81 | 13.1

Row | Sequence | self-aminoacylation (biotinyl-Phe-oxazolone) | self-aminoacylation (biotinyl-Ile-oxazolone) | self-aminoacylation (biotinyl-Met-oxazolone) | self-aminoacylation (biotinyl-Val-oxazolone) | self-aminoacylation (biotinyl-Leu-oxazolone) | self-aminoacylation (biotinyl-Trp-oxazolone)
27 | GUUCACCUAGGUCACCGGGUG [Fam2.2 aminoacylation ribozyme variant] | 28.5 | 4.06 | 3.6 | 3.55 | 5.53 | 6.73
28 | GUUCACCUAGGUCAUCCGGUG [Fam2.2 aminoacylation ribozyme variant] | 45.4 | 5.36 | 6.69 | 5.33 | 6.89 | 7.53
29 | GUUCACCUAGGUCAUCGGGCG [Fam2.2 aminoacylation ribozyme variant] | 4.6 | 2.98 | 4.01 | 3.11 | 5.06 | 4.17
30 | GUUCACCUAGGUCAUCGGGUG [Fam2.2 aminoacylation ribozyme variant] | 180 | 13.7 | 25.5 | 12.5 | 32.5 | 20.1
31 | GUUCACCUAGGUCAUCGGGUU [Fam2.2 aminoacylation ribozyme variant] | 51.7 | 7.61 | 13.5 | 6.82 | 17.9 | 9.2
32 | GUUCACCUAGGUCAUGGGGUG [Fam2.2 aminoacylation ribozyme variant] | 10.3 | 2.64 | 3.63 | 3.01 | 4.4 | 4.06
33 | GUUCACCUUGGUCAUCGGGUG [Fam2.2 aminoacylation ribozyme variant] | 37.7 | 3.45 | 5.14 | 4.34 | 5.74 | 5.93
34 | GUUCCCCUAGGUCAUCGGGUG [Fam2.2 aminoacylation ribozyme variant] | 94.8 | 7.72 | 13.3 | 8.06 | 14.2 | 12.1
35 | GUUGCCCUGGUCAUCGAGUGA [Fam2.1 aminoacylation ribozyme variant] | 382 | 19.1 | 54.2 | 23.4 | 57.5 | 58.8
36 | UACUUUGCUAAUAGUCGCAAG [Fam3.1 aminoacylation ribozyme variant] | 2.71 | 1.75 | 1.66 | 1.33 | 1.86 | 1.46
37 | UAGUUUGCGAAUAGUCGCAAG [Fam3.1 aminoacylation ribozyme variant] | 2.28 | 1.82 | 1.68 | 1.1 | 1.75 | 1.73
38 | UAGUUUGCUAAUAGUCGCAGG [Fam3.1 aminoacylation ribozyme variant] | 2.23 | 1.72 | 1.2 | 1.34 | 1.31 | 2.22
39 | UAUACCCUGGUCAUCGAGUGA [Fam2.1 aminoacylation ribozyme variant] | 25.2 | 7.17 | 14.8 | 7.52 | 15.5 | 16
40 | UCACACUUCAAGCAAUCCGUC [Fam1B.1 aminoacylation ribozyme variant] | 1.15 | 0.955 | 0.667 | 1.25 | 0.591 | 1.01
41 | UCACACUUCAAGCAAUCGCUC [Fam1B.1 aminoacylation ribozyme variant] | 1.94 | 1.43 | 1.46 | 1.32 | 1.3 | 1.45
42 | UCACACUUCAAGCAAUCGGUG [Fam1B.1 aminoacylation ribozyme variant] | 29 | 3.81 | 5.17 | 3.95 | 7.95 | 6.38
43 | UCACACUUCAAGCACUCGGUC [Fam1B.1 aminoacylation ribozyme variant] | 0.873 | 0.94 | 0.873 | 1.32 | 0.927 | 0.771
44 | UCACACUUCAAGCAGUCGGUC [Fam1B.1 aminoacylation ribozyme variant] | 1.06 | 0.827 | 0.968 | 0.972 | 0.879 | 0.901
45 | UCACACUUCAAGCUAUCGGUC [Fam1B.1 aminoacylation ribozyme variant] | 1.11 | 0.939 | 0.703 | 1.02 | 0.749 | 0.724
46 | UCACAUUUCAAGCAAUCGGUC [Fam1B.1 aminoacylation ribozyme variant] | 2.47 | 1.04 | 0.73 | 1.07 | 0.847 | 1.56
47 | UCGCACUUCAAGCAAUCGGUC [Fam1B.1 aminoacylation ribozyme variant] | 55.1 | 1.38 | 1.44 | 1.61 | 2.14 | 29.8
48 | UUACACCUAGGUCAUCGGGUG [Fam2.2 aminoacylation ribozyme variant] | 10.5 | 2.25 | 1.92 | 2.15 | 1.87 | 3
49 | UUACUUCAAACAAUCGGCCUG [Fam1A.1 aminoacylation ribozyme variant] | 95.3 | 2.69 | 2.35 | 2.3 | 4.03 | 43.2
50 | UUACUUCAAACAAUCGGUCCG [Fam1A.1 aminoacylation ribozyme variant] | 1.69 | 0.82 | 0.942 | 0.891 | 0.937 | 1.64
51 | UUACUUCAAACAAUCGGUGUG [Fam1A.1 aminoacylation ribozyme variant] | 7.15 | 1.51 | 1.97 | 1.46 | 2.36 | 5.33
